System: MS2 coat protein
Test: apparent KD of MS2 coat protein; designed switch direction (-1 OFF switch, 1 ON switch): -1; higher = weaker reporter binding
In short: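 The reported apparent KD is a per-design median over clusters, from curve fits of normalised cluster fluorescence. Protein titrations used SNAP-549-labelled MS2 coat protein, doubled from 0.7 or 1.5 nM to 3 µM, in Tris-HCl pH 7.5 buffer with KCl, MgCl2, BSA, DTT, tRNA and Tween-20, with no input, 200 uM small-molecule ligand, or an oligonucleotide input. The RNA switches were transcribed on Illumina chips by stalled E. coli RNA polymerase.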

[1] = Eterna round: R95, input ligand: microRNA oligo, concentration not stated
[2] = input ligand: microRNA oligo, concentration not stated
[3] = Eterna round: R95, input ligand: FMN 200 uM
[4] = Eterna round: R95, input ligand: none

## UUGGAUGUUGAGGAUAUGCUGGUGUUUAUUAUAGCAGAAGGCGAUACAUGAGGAUCACCCAUGUUCAUGGCUUU [JR_E6_Sub100] (puzzle: Exclusion 6)
[1]
  apparent KD of MS2 coat protein: 12.4 nM

## AGUUAGAUAGGAUAUGCCCGAGAUAACAUGAGGAUCACCCAUGUGACCGAGUCUAUUCUAGCAGAAGGGUUUAUGA [Mod of ViennaUCT 20 - Jieux - Exclusion 5] (Eterna round: R97, puzzle: Exclusion 5)
Input ligand: FMN 200 uM
  apparent KD of MS2 coat protein: 17.8 nM
Input ligand: none
  apparent KD of MS2 coat protein: 18.3 nM

## UUGUUGUGUGUAGGAUAUGCAUGUUAUUAUUAUGCAGAAGGACAUGAGGAUCACCCAUGUGUAUUAUUAUUAUAUAUUAUAUAU [Title] (Eterna round: R96, puzzle: Exclusion NG 1)
Input ligand: FMN 200 uM
  apparent KD of MS2 coat protein: 21.1 nM
[2]
  apparent KD of MS2 coat protein: 13.8 nM
Input ligand: none
  apparent KD of MS2 coat protein: 22.5 nM

## AGAUGGCGAGGAUAUACAUGAGGAUCACCCAUGUGAGAAGAGAAAGUGAGGAAGAAAAGUAGAAGGCGCUGUCA [Mat - Exclusion 3 - Mod of Salish D21] (puzzle: Exclusion 3)
[3]
  apparent KD of MS2 coat protein: 200 nM
[1]
  apparent KD of MS2 coat protein: 60.9 nM
[4]
  apparent KD of MS2 coat protein: 57 nM

## UAAACAAGCUAAAGAUCCUACAUGAGGAUCACCCAUGUGCUCGUCUUGUAACGUACUGUGACGAAAGUCACGGUACG [JL TOV1 3.10] (Eterna round: R97, puzzle: Sensor, turn-off variant 1)
Input ligand: FMN 200 uM
  apparent KD of MS2 coat protein: 194 nM
Input ligand: none
  apparent KD of MS2 coat protein: 202 nM

## UGCGGGCUUCUGAGACCUCACAUGAGGAUCACCCAUGUGCUUGUCUUGUAAGUGGGUAGGUCGUUGGCUGACUCACA (Eterna round: R97, puzzle: Sensor, turn-off variant 1)
Input ligand: FMN 200 uM
  apparent KD of MS2 coat protein: 18.2 nM
Input ligand: none
  apparent KD of MS2 coat protein: 17.8 nM

## GAUGGACAUGAGGAUCACCCAUGUAAGGAUAUACGGUUGGUAGAGAGAGAGAGGAAUGGUAGAAGGUACGGAGG [JR_Exclu1_Sub052] (puzzle: Exclusion 1)
[3]
  apparent KD of MS2 coat protein: 38.7 nM
[1]
  apparent KD of MS2 coat protein: 43.1 nM
[4]
  apparent KD of MS2 coat protein: 55.9 nM

## CCGGGCGCAGGAUAUACGUGGCCCAAAUAAAUAAUAACCACACAUGAGGAUCACCCAUGUAGAAGGGCGCCCGG [-26.59, -25.61 kcal, A 32%] (Eterna round: R97, puzzle: Exclusion 2)
Input ligand: FMN 200 uM
  apparent KD of MS2 coat protein: 116 nM
Input ligand: none
  apparent KD of MS2 coat protein: 49.9 nM

## AACUUCUGAGGAUAUACAUAGAUUUACAUGAGGAUCACCCAUGUUCCUCUAUGUAUAAAUGUAGAAGGCAGAAGAU [Mat - Exclusion 5 - JL Mod - D62] (Eterna round: R97, puzzle: Exclusion 5)
Input ligand: FMN 200 uM
  apparent KD of MS2 coat protein: 129 nM
Input ligand: none
  apparent KD of MS2 coat protein: 18.4 nM

## CCGCAAAAGCAGGAUAUCGUAUCGGAUACGAUACGAGAAGGGUUUACAUGAGGAUCACCCAUGUUCCUUAGCGG [Fiskers Ex 6 - 32] (puzzle: Exclusion 6)
[1]
  apparent KD of MS2 coat protein: 26.8 nM

## CAAACCAGAGGAUAUGCGCAUAGAUCAGACUUUGUUUCUGAACAUGAGGAUCACCCAUGUAGAAGGCUGUAAAA [Ex2 #83] (Eterna round: R97, puzzle: Exclusion 2)
Input ligand: FMN 200 uM
  apparent KD of MS2 coat protein: 28.1 nM
Input ligand: none
  apparent KD of MS2 coat protein: 29.7 nM

## GGUCAGAUGGUAGGAUAUCCAUAUCGAGUGACCCUUUCAUAACAUGAGGAUCACCCAUGUCGGUGGGAGAAGGGCUGUACGGCG [salish99_ExNG02_R04_021] (Eterna round: R96, puzzle: Exclusion NG 2)
Input ligand: FMN 200 uM
  apparent KD of MS2 coat protein: 34.8 nM
[2]
  apparent KD of MS2 coat protein: 19.1 nM
Input ligand: none
  apparent KD of MS2 coat protein: 43.3 nM

## UUUUUCGAACAAGCUACGUACAUGAGGAUCACCCAUGUCGGUAGAUUUGAGUAGGUUUGGAUGGAAGCUCGUCUUAU [JR_SV3TOV1_Sub085] (puzzle: Sensor v3, turn-off variant 1)
[3]
  apparent KD of MS2 coat protein: 19.4 nM
[1]
  apparent KD of MS2 coat protein: 28.2 nM
[4]
  apparent KD of MS2 coat protein: 19.5 nM

## CUGGUCCGAGGAUAUAUUAAGUGAUACAUGAGGAUCACCCAUGUAAUUUGAUGGAUGUAAAUAGAAGGCGGACUAG [JL-ex5-3.10] (puzzle: Exclusion 5)
[3]
  apparent KD of MS2 coat protein: 36.8 nM
[1]
  apparent KD of MS2 coat protein: 63.5 nM
[4]
  apparent KD of MS2 coat protein: 45 nM

## GAUUGACAUGAGGAUCACCCAUGUGAGGAUAUCGGCCGGACCGUGUUAGCUUCCGUCGCGAGAAGGCGCAUAGG [Exclusion 1 V38] (puzzle: Exclusion 1)
[3]
  apparent KD of MS2 coat protein: 42.3 nM
[1]
  apparent KD of MS2 coat protein: 42.8 nM
[4]
  apparent KD of MS2 coat protein: 36.7 nM

## UAUUAGCAAGUAAGGUCCCACAUGAGGAUCACCCAUGUGCUCGUCUCCUCAGGUACGGAGCGGAAGCUCCCGAUAUG [Sensor-V1 #94] (Eterna round: R97, puzzle: Sensor, turn-off variant 1)
Input ligand: FMN 200 uM
  apparent KD of MS2 coat protein: 87 nM
Input ligand: none
  apparent KD of MS2 coat protein: 102 nM

## GUAUAGUGAGGAUAUAUAUGCAGUAAACCUCAAAAGAUCGAACUUGAGGAUCACCCAAGUAGAAGGCGCGAGAU [JR_Ex2_Sub052] (Eterna round: R97, puzzle: Exclusion 2)
Input ligand: FMN 200 uM
  apparent KD of MS2 coat protein: 24.5 nM
Input ligand: none
  apparent KD of MS2 coat protein: 30.4 nM

## GAUUAUGCGAGCUUUAGGGACAUGAGGAUCACCCAUGUUCGUCUUAUUGGUCUAGAUGCACUAACAUACCUAAAUCU [JMF 26] (puzzle: Sensor v3, turn-off variant 1)
[3]
  apparent KD of MS2 coat protein: 18 nM
[1]
  apparent KD of MS2 coat protein: 24.4 nM
[4]
  apparent KD of MS2 coat protein: 18.2 nM

## CUUGUUUAUGUAGGAUAUGCCUGGCGUGCCUUUGCAGAAGGACAUGAGGAUCACCCAUGUAACAUGAGGCUCACCCAUGUCGCA [salish99_ExNG1_r04_104] (Eterna round: R96, puzzle: Exclusion NG 1)
Input ligand: FMN 200 uM
  apparent KD of MS2 coat protein: 376 nM
[2]
  apparent KD of MS2 coat protein: 256 nM
Input ligand: none
  apparent KD of MS2 coat protein: 353 nM

## CAGCUGAAUGUGAGGAUAUGUCGAGCUUCGGCUCGAUAGAAGGCACAUGAGGAUCACCCAUGUCUCAACAGCUG [BmEx4/2-C1] (Eterna round: R97, puzzle: Brourd's mod of Exclusion 4)
Input ligand: FMN 200 uM
  apparent KD of MS2 coat protein: 166 nM
Input ligand: none
  apparent KD of MS2 coat protein: 35.1 nM

## UCACGGGACUGAGGAUAUACAUCAACCAUGGUUGUAGAAGGCAGAAGGUUGGAUCAUACACUAAACAUGAGGAUCACCCAUGUU [JR_ExcNG1_Sub029] (Eterna round: R96, puzzle: Exclusion NG 1)
Input ligand: FMN 200 uM
  apparent KD of MS2 coat protein: 17.7 nM
[2]
  apparent KD of MS2 coat protein: 16.8 nM
Input ligand: none
  apparent KD of MS2 coat protein: 21.6 nM

## CGCCAAAGGAAGGAUAUGCUAGACGAAAGUCUAGCAGAAGGUCCUACAUGAGGAUCACCCAUGUGUCCUAGGCG [Mat - Exclusion 6 - Eli Mod - D10] (Eterna round: R97, puzzle: Exclusion 6)
Input ligand: FMN 200 uM
  apparent KD of MS2 coat protein: 49.1 nM
Input ligand: none
  apparent KD of MS2 coat protein: 46.1 nM

## GUAAUUAUAUAGGAUAUCGAAAGUAUAAUUUAACGAGAAGGAUGAACAUGAGGAUCACCCAUGUGGUAUCAUGG [JL-ex6-3.08] (puzzle: Exclusion 6)
[3]
  apparent KD of MS2 coat protein: 66.4 nM
[1]
  apparent KD of MS2 coat protein: 321 nM
[4]
  apparent KD of MS2 coat protein: 219 nM

## GAAAAGGUAGAGGAUAUUUCAGAUCAAAGCUGCAAAGAAGGCUGCACAUGAGGAUCACCCAUGUGGUCUUUAAA [Mod of Quesina 10 - Jieux - Exclusion 6] (Eterna round: R97, puzzle: Exclusion 6)
Input ligand: FMN 200 uM
  apparent KD of MS2 coat protein: 70.1 nM
Input ligand: none
  apparent KD of MS2 coat protein: 17.6 nM

## UCCGGACAUGAGGAUCACCCAUGUGAGGAUAUUGUCGACACGACUGAAAGGAUCACGGCGAGAAGGCGCUUGGA [Eternabot (L2) Solution 48] (Eterna round: R97, puzzle: Exclusion 1)
Input ligand: FMN 200 uM
  apparent KD of MS2 coat protein: 25.7 nM
Input ligand: none
  apparent KD of MS2 coat protein: 21.6 nM

## ACAUGAGGAUCACCCAUGUCUGGCUGGUCCGUCUCGGCUGUCGAGGAUAUGGCUCGGUGUCCGCGCUAGAAGGCGGGAGCUGGA [Aenatbe mod 78] (Eterna round: R96, puzzle: Exclusion NG 3)
Input ligand: FMN 200 uM
  apparent KD of MS2 coat protein: 193 nM
[2]
  apparent KD of MS2 coat protein: 43 nM
Input ligand: none
  apparent KD of MS2 coat protein: 68.2 nM

## CAUACAGUAGUUAGGAUAUUGCAACGUAUACGGAUCGAGAAGGGACAUGAGGAUCACCCAUGUAGAUUGUAAAG [EX-4 Malc #9] (puzzle: Brourd's mod of Exclusion 4)
[1]
  apparent KD of MS2 coat protein: 34 nM

## AGACCGAUAGCAGGAUAUAGGACGACGAGAGCGCUAGAAGGGCUGACGACAUGAGGAUCACCCAUGUUUUCGUCUCAACAGGCA [Eternabot solution 22] (Eterna round: R96, puzzle: Exclusion NG 1)
Input ligand: FMN 200 uM
  apparent KD of MS2 coat protein: 31 nM
[2]
  apparent KD of MS2 coat protein: 23.1 nM
Input ligand: none
  apparent KD of MS2 coat protein: 29.2 nM

## ACAAGCUCUUUGCAACUUAGUUUUGUUGCUUCGUAGGUAACAUGAGGAUCACCCAUGUAAGACUGAUGUCGUCUUAU [JR_SV3TOV2_Sub086] (Eterna round: R96, puzzle: Sensor v3, turn-off variant 2)
Input ligand: FMN 200 uM
  apparent KD of MS2 coat protein: 36.8 nM
[2]
  apparent KD of MS2 coat protein: 20.6 nM
Input ligand: none
  apparent KD of MS2 coat protein: 38.2 nM

## CACCGGGUAGGAUAUACUUGAGGAUCACCCAAGUGGGAACCUACUCGGUGGUCCUUAAGUAGAAGGACCAACGG [Ex 2] (Eterna round: R97, puzzle: Exclusion 3)
Input ligand: FMN 200 uM
  apparent KD of MS2 coat protein: 11.5 nM
Input ligand: none
  apparent KD of MS2 coat protein: 11.9 nM

## AGAUCGUCAGGAUAUACAUGAGGAUCACCCAUGUAUAGUCUAAAUUUGACUAUAAAGUGUAGAAGGGACGAUCG [Exclusion 3 (MOD6 of #1 Marzena11)] (Eterna round: R97, puzzle: Exclusion 3)
Input ligand: FMN 200 uM
  apparent KD of MS2 coat protein: 51.5 nM
Input ligand: none
  apparent KD of MS2 coat protein: 18.1 nM

## ACGACGUAAGGAUAUACAUGAGGAUCACCCAUGUGGAGAUCCAGAGGAGAGACCUGACGUAGAAGGUGCGUCGA [Eternabot (L2) Solution 87] (Eterna round: R97, puzzle: Exclusion 3)
Input ligand: FMN 200 uM
  apparent KD of MS2 coat protein: 286 nM
Input ligand: none
  apparent KD of MS2 coat protein: 1400 nM

## GAUGCCAGAGGAUAUGCAUCGGGUUCCUGGUUAAGGCUGCCACAUGAGGAUCACCCAUGUAGAAGGCUGCCGUC [EX2 B.5] (Eterna round: R97, puzzle: Exclusion 2)
Input ligand: FMN 200 uM
  apparent KD of MS2 coat protein: 17.4 nM
Input ligand: none
  apparent KD of MS2 coat protein: 9.94 nM
